Test system: cultured cortical neurons
Assay: Firing properties of cultured cortical neurons in normal external solution
Format: cell-based, mouse
Conditions: absence of TTX and neurotransmitter receptor antagonists

B1: C-Ag20z0: C-Ag20 isoform having the z0 splice variant, SEQ. ID NO. 1 (protein)
chain: MDPRTYIEYLNAVTESEKALQSNHFELTLRTEATQGWLVLWIGKAAERADYMALAIVDGHLQLSYDLASQPVVLRSTVKVNTNRWLRVRAHREHREGSLQVGNEAPVTSSSPLGATQLDTDGALWLGGLQKLPVGQPLPKAYGTGFVGCLRNVVGHRQLHLLEDAVTKPELRPCPTLNSKLGPEQKLISEEDLNSAVDHHHHHH
modifications: Synthetically produced sequence
For B1, the “frequency of spontaneous action potentials” value was “significant and reversible increase”.

B2: C-Ag15: 15-kD COOH-terminal fragment of agrin created by deleting 37 amino acids from the NH2 terminus of C-Ag20, SEQ. ID NO. 3 (protein)
chain: MDPWIGKAAERADYMALAIVDGHLQLSYDLASQPVVLRSTVKVNTNRWLRVRAHREHREGSLQVGNEAPVTSSSPLGATQLDTDGALWLGGLQKLPVGQPLPKAYGTGFVGCLRNVVGHRQLHLLEDAVTKPELRPCPTLNSKLGPEQKLISEEDLNSAVDHHHHHH
modifications: Synthetically produced sequence
For B2, the “frequency of spontaneous action potentials” value was “inhibited spontaneous activity”.
